Numbering of substitutions follows the chain as printed. Names and notes keep the numbering of the source.
Assays:
[1] = molecular target: the molecule itself; experiment: SEC-MALS; Superdex 200 Increase 10/30; 20 mM Tris/acetate pH 7.6, 150 mM NaCl, 0.1 mM EDTA, 0.1 mM PMSF, 2 mM DTT; 200–250 μg of HspB8 WT or R29A, or 400 μg of Δ28–32 loaded
[2] = molecular target: the molecule itself; experiment: SEC-MALS; Superdex 200 Increase 10/30; buffer D (20 mM Tris/acetate pH 7.6, 150 mM NaCl, 0.1 mM EDTA, 0.1 mM PMSF) without any reducing agents; 200–250 μg of oxidized HspB8Cys loaded

B1: HspB8 Δ28–32 mutant (natural protein, human, UniProt Q9UJY1 1-196, looked up)
chain: MADGQMPFSCHYPSRLRRDPFRDSPLSDGFGMDPFPDDLTASWPDWALPRLSSAWPGTLRSGMVPRGPTATARFGVPAEGRTPPPFPGEPWKVCVNVHSFKPEELMVKTKDGYVEVSGKHEEKQQEGGIVSKNFTKKIQLPAEVDPVTVFASLSPEGLLIIEAPQVPPYSTFGESSFNNELPQDSQEVTCT
notes: human HspB8 (Hsp22), Uniprot Q9UJY1, with the pentapeptide 28SRLLD32 deleted; calculated Mw of monomer 21.0 kDa; Made by PCR from the HspB8 WT cDNA and ligated into pET23 via NdeI and XhoI; No tag is named; also called Δ mutant; deletion mutant of HspB8
stoichiometry N [1]: 2

B2: HspB8 R29A mutant (natural protein, human, UniProt Q9UJY1 1-196, looked up)
chain: MADGQMPFSCHYPSRLRRDPFRDSPLSSALLDDGFGMDPFPDDLTASWPDWALPRLSSAWPGTLRSGMVPRGPTATARFGVPAEGRTPPPFPGEPWKVCVNVHSFKPEELMVKTKDGYVEVSGKHEEKQQEGGIVSKNFTKKIQLPAEVDPVTVFASLSPEGLLIIEAPQVPPYSTFGESSFNNELPQDSQEVTCT
notes: human HspB8 (Hsp22), Uniprot Q9UJY1, carrying the R29A mutation; calculated Mw of monomer 21.5 kDa; No tag is named
binding result [1]: binds

B3: oxidized Cys mutant of HspB8 (C10S/C99S/C195S/N138C) (natural protein, human, UniProt Q9UJY1 1-196, looked up)
chain: B2 chain with C10S, A29R, C99S, N138C, C195S
modifications: engineered disulfide bridge between the Cys138 residues of two chains (oxidized form)
notes: human HspB8 (Hsp22), Uniprot Q9UJY1, with the C10S/C99S/C195S/N138C amino acid substitutions; calculated Mw of monomer 21.5 kDa; The dimer is covalent (S-S crosslinked) after oxidation; No tag is named; also called HspB8Cys; oxidized HspB8Cys; source: oxidized by overnight dialysis
stoichiometry N [2]: 2

Source: paper PMC8213154, “Replacement of Arg in the conserved N-terminal RLFDQxFG motif affects physico-chemical properties and chaperone-like activity of human small heat shock protein HspB8 (Hsp22)” (PLoS ONE, 2021)
